Laboratory results as given in article PMC6692047, “Ddc2^ATRIP promotes Mec1^ATR activation at RPA-ssDNA tracts” (PLoS Genetics, 2019).

Biological target: T1, Replication protein A (RPA), consisting of Rfa1, Rfa2 and Rfa3 (budding yeast, UniProt P22336 1-621; P26754 1-273; P26755 1-122)
T1 construct: Rfa1, subunit of budding yeast RPA; Rfa2, subunit of budding yeast RPA; Rfa3, subunit of budding yeast RPA; also called budding yeast RPA protein; source: purified as described [83]; copies: + +
Experiment: pull-down; streptavidin beads coated with biotinylated oligonucleotide bio-oligo(dN)80 (5 pmol), incubated with RPA (1 pmol) for 30 min, then with Mec1-Ddc2, Mec1-Ddc2-S4, MBP, MBP-Ddc2 or MBP-Ddc2-S4 (0.5 pmol) for 30 min; buffer B (20 mM Tris-HCl pH 7.5, 100 mM NaCl, 0.01% NP-40, 10% glycerol, 100 μg/ml BSA), 30°C; immunoblot of captured proteins
Conditions: both partners purified

T1 sequence (P22336 whole entry, chain 1 of 3): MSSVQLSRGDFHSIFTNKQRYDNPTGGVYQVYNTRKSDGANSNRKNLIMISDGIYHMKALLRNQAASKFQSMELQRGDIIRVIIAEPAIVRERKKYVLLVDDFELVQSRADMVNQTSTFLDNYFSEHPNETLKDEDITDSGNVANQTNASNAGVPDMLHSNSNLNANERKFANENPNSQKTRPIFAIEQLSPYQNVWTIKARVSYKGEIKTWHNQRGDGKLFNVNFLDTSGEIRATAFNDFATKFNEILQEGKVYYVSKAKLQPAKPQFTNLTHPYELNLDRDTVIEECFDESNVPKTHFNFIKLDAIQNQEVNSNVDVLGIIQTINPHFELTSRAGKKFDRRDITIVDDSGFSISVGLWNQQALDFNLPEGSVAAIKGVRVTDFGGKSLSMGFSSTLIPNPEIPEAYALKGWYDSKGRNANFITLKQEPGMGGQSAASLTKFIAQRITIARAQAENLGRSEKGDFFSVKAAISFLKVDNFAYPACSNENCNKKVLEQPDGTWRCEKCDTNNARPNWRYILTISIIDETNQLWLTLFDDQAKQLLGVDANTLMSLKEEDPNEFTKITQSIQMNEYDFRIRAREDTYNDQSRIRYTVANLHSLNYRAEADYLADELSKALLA
T1 sequence (P26754 whole entry, chain 2 of 3): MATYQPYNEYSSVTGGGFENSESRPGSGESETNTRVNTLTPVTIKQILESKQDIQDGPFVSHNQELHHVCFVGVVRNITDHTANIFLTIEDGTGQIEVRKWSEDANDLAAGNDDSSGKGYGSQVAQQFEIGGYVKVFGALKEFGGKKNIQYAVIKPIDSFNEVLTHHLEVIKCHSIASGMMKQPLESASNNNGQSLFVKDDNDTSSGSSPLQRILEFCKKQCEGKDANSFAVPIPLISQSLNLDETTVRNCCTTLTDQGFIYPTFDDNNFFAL
T1 sequence (P26755 whole entry, chain 3 of 3): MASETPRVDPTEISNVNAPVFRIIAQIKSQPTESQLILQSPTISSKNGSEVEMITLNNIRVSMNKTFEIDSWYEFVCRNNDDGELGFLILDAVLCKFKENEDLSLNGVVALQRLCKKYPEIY

B1: MBP-Ddc2 (natural protein, budding yeast, UniProt Q04377 1-747, looked up)
chain: MRRETVGEFSSDDDDDILLELGTRPPRFTQIPPSSAALQTQIPTTLEVTTTTLNNKQSKNDNQLVNQLNKAQGEASMLRDKINFLNIEREKEKNIQAVKVNELQVKHLQELAKLKQELQKLEDEKKFLQMEARGKSKREVITNVKPPSTTLSTNTNTITPDSSSVAIEAKPQSPQSKKRKISDNLLKKNMVPLNPNRIIPDETSLFLESILLHQIIGADLSTIEILNRLKLDYITEFKFKNFVIAKGAPIGKSIVSLLLRCKKTLTLDRFIDTLLEDIAVLIKEISVHPNESKLAVPFLVALMYQIVQFRPSATHNLALKDCFLFICDLIRIYHHVLKVPIHESNMNLHVEPQIFQYELIDYLIISYSFDLLEGILRVLQSHPKQTYMEFFDENILKSFEFVYKLALTISYKPMVNVIFSAVEVVNIITSIILNMDNSSDLKSLISGSWWRDCITRLYALLEKEIKSGDVYNENVDTTTLHMSKYHDFFGLIRNIGDNELGGLISKLIYTDRLQSVPRVISKEDIGMDSDKFTAPIIGYKMEKWLLKLKDEVLNIFENLLMIYGDDATIVNGEMLIHSSKFLSREQALMIERYVGQDSPNLDLRCHLIEHTLTIIYRLWKDHFKQLREEQIKQVESQLIMSLWRFLVCQTETVTANEREMRDHRHLVDSLHDLTIKDQASYYEDAFEDLPEYIEEELKMQLNKRTGRIMQVKYDEKFQEMARTILESKSFDLTTLEEADSLYISMGL
notes: Ddc2 (ATRIP homolog), budding yeast; also called MBP-fused Ddc2; pMAL-Ddc2; source: E. coli Rosetta, purified (amylose resin)
binding result: binds

B2: MBP-Ddc2-S4 (natural protein, budding yeast, UniProt Q04377 1-747, looked up)
chain: MRRETVGEFSSDDDDDILLELGTRPPRFTQIPPSSAALQTQIPTTLEVTTTTLNNKQSKNDNQLVNQLNKAQGEASMLRDKINFLNIEREKEKNIQAVKVNELQVKHLQELAKLKQELQKLEDEKKFLQMEARGKSKREVITNVKPPSTTLSTNTNTITPDSSSVAIEAKPQSPQSKKRKISDNLLKKNMVPLNPNRIIPDETSLFLESILLHQIIGADLSTIEILNRLKLDYITEFKFKNFVIAKGAPIGKSIVSLLLRCKETLTLDRFIDTLLEDIAVLIKEISVHPNESKLAVPFLVALMYQIVQFRPSATHNLALKDCFLFICDLIRIYHHVLKVPIHESNMNLHVEPQIFQYELIDYLIISYSFDLLEGILRVLQSYPKQTYMEFFDENILKSFEFVYKLALTISYKPMVNVIFSAVEVVNIITSIILNMDNSSDLKSLISGSWWRDCITRLYALLEKEIKSGDVYNENVDTTTLHMSKYHDFFGLIRNIGDNELGGLISKLIYTDRLQSVPRVISKEDIGMDSDKFTAPIIGYKMEKWLLKLKDEVLNIFENLLMIYGDDATIVNGEMLIHSSKFLSREQALMIERYVGQDSPNLDLRCHLIEHTLTIIYRLWKDHFKQLREEQIKQVESQLIMSLWRFLVCQTETVTANEREMRDHRHLVDSLHDLTIKDQASYYEDAFEDLPEYIEEELKMQLNKRTGRIMQVKYDEKFQEMARTILESKSFDLTTLEEADSLYISMGL
notes: Ddc2 (ATRIP homolog), budding yeast, with the two ddc2-S4 substitutions; also called MBP-fused Ddc2-S4; pMAL-Ddc2-S4; source: E. coli Rosetta, purified (amylose resin)
binding result: binds
